Measurements as given in patent publication US11365219B2, “Cyclic peptides as protein targeting agents” (California Institute of Technology, priority 2013, dated 2022).
Numbered stars: 1 amine (or outer) side, 2 acyl side, 3 side chain; on linkers, the order of the positions; unused ones are H or OH. Bridge positions count the residues as written; N and C are the ends. Square brackets hold non-standard residues; d marks the D form. Ends that are not written are not given here. Peptide text beside a SMILES is read from it. * marks the point of attachment. Biotin = O=C1N[C@H]2[C@H](CS[C@H]2CCCCC(=O)*)N1; X1 = O=C(CCCOCCOCCOCCOCCOCCN[*:1])[*:2]; Ethylenediamine = C(CN[*:2])N[*:1]; R8 = C=CCCCCCC[C@@](C)(N)C(=O)O; S5 = C=CCCC[C@](C)(N)C(=O)O; Pra = C#CC[C@H](N)C(=O)O

What was measured:
Akt2 = Akt2 (Homo sapiens, UniProt P31751); assay: single point immunoassay, cyclic versus linear peptide (FIG. 6C); type: binding
Text: The peptide libraries of Example 2 were screened against the C-terminal epitope of Akt2 that contains residues 450-481 as illustrated in FIG. 5. Those residues include the phosphorylation site […] which, for the screen exemplified in this example, was phosphorylated. The peptide libraries were first screened against synthetic peptide that represented a scrambled epitope of Akt2 450-481 to eliminate those library elements that bind to closely related epitopes. The remaining library elements were screened against a synthetically prepared polypeptide fragment representing the phosphorylated Akt2 C-terminus. The libraries A, B, C (from example 2) were all screened. Library C yielded hits, and the sequence of those hits (determined by Edman degradation) is shown in Table 3 (Tz4 indicates 4-carbon linker to triazole).
(§1) The structure of an isolated hit, with sequence of variable region YYTYT (SEQ ID NO:4) is illustrated in FIG. 6A. […] FIG. 6D is an affinity estimation from immunoassays in which the Cy(YYTYT (SEQ ID NO:4)-Tz4) peptide is compared against the corresponding linear peptide for capturing full-length Akt2 protein. […] Finally, FIG. 6E presents selectivity assay data showing the relative binding of the cyclic peptide to the Akt2 protein, relative to the closely related Akt1 and Akt3 proteins. The sequence of the C-terminal regions for all three proteins is given.

full-length Akt2 protein = molecular target: T1, full-length Akt2 protein (Homo sapiens, UniProt P31751); assay: affinity estimation from immunoassays capturing full-length Akt2 protein (FIG. 6D); type: binding; details: cyclic vs linear peptide
T1 construct: compared against the corresponding linear peptide for capturing full-length Akt2 protein
Text: as §1

PfHRP2 protein = PfHRP2 protein (Plasmodium falciparum, UniProt P05227); assay: biochemical
Description: For the selectivity assay, the effect of binding of the ligand to the PfHRP2 protein with varying serum concentrations was determined.

PfLDH [1] = molecular target: T2, PfLDH (Plasmodium falciparum, UniProt Q27743, A73S/D96L); assay: ELISA, biotinylated ligand on streptavidin plate, GST-PfLDH, antiGST-HRP detection; type: binding; details: 5 μM biotinylated ligand immobilized
Description: (§2) Hit sequence No. 6 (HWSAN (SEQ ID NO:11)) was identified for further testing against the whole PfLDH or PvLDH proteins, results of which are presented in FIG. 10. […] A RCM cyclized version of the HWSAN (SEQ ID NO:11) peptide was synthesized. 5 μM of the biotinylated ligands were immobilized on a streptavidin plate, blocked with 5% milk and then treated with GST-PfLDH or GST-PvLDH proteins overnight. The binding was detected using antiGST-HRP antibody.
To look at the selectivity of the ligand, a single point ELISA was done with the biotinylated ligand immobilized on the streptavidin plate and treating with 10 nM PfLDH or PvLDH protein in varying concentrations of human serum.

PvLDH [2] = assay: ELISA, biotinylated ligand on streptavidin plate, GST-PvLDH, antiGST-HRP detection; type: binding; details: whole protein; 5 μM biotinylated ligand immobilized; FIG. 10
Description: as §2

PfLDH [3] = molecular target: T2, PfLDH; assay: sandwich ELISA, NeutrAvidin-coated plates loaded with biotinylated ligand, pfLDH; type: binding; details: varying concentrations of pLDH in TBS
Description: (§3) The structure of the resulting binary ligand hevwh-YLGHK based on the hit sequence No. 1 and representative data is presented in FIG. 11. […] Similar ELISA was performed with pLDHs and human LDH (hLDH) in the presence of 1 and 5% (v/v) human serum to confirm the selectivity and high activity of the binary ligand in complex mixtures.

PvLDH [4] = assay: sandwich ELISA, NeutrAvidin-coated plates loaded with biotinylated ligand, pvLDH; type: binding; details: varying concentrations of pLDH in TBS
Description: as §3

T1 sequence (P31751 whole entry): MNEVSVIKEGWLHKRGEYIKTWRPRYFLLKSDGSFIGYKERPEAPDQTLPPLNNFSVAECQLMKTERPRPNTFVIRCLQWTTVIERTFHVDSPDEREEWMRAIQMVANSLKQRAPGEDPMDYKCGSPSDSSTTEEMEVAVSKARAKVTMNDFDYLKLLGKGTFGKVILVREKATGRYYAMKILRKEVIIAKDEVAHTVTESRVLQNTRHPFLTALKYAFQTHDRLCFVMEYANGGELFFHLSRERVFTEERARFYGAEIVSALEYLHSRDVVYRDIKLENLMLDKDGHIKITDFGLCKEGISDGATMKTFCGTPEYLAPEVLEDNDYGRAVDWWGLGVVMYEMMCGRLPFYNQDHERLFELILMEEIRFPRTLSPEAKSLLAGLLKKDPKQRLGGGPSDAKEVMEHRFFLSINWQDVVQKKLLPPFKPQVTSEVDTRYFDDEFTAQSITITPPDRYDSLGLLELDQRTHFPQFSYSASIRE
Chain of Akt2 (P31751 whole entry, the tested form may be a part): as the sequence (P31751 whole entry) above

Compound: Cy(YYTYT (SEQ ID NO:4)-Tz4) (triazole (positions not given here); also: Tz4: 4-carbon linker to triazole)
- binding relative to the linear variant (Akt2): improved binding
- affinity relative to the corresponding linear peptide (full-length Akt2 protein): 30 fold

Compound: CC(C)C[C@@H]1NC(=O)[C@H](Cc2c[nH]c3ccccc23)NC(=O)[C@H](CCC(=O)O)NC(=O)[C@H]([C@@H](C)O)NC(=O)[C@H](CO)NC(=O)CNC(=O)[C@](C)(N)CCCCCC/C=C\CCC[C@@](C)(C(=O)NCCOCCOCCOCCOCCOCCCC(=O)NCCNC(=O)CCCC[C@@H]2SC[C@@H]3NC(=O)N[C@@H]32)NC1=O [biotinylated peptide] (H-[R8]GSTEWL[S5][X1]-{Ethylenediamine-Biotin}; staple (Z) 1-8)
- EC50 (PfHRP2 protein): 20 nM

Compound: RCM cyclic peptide: RCM cyclized version of the HWSAN peptide, biotinylated ligand (staple (positions not given here); also: RCM cyclized, olefinic residues not placed, biotinylated, site not given here)
- affinity for PfLDH, RCM cyclic versus triazole-cyclized peptide (PfLDH [1]; GST-PfLDH overnight): higher affinity

Compound: HWSAN ([Pra]HWSAN; triazole (positions not given here); also: triazole cyclisation, partner residue not given here) [HWSAN (SEQ ID NO:11)]
- affinity for pvLDH (PvLDH [2]): high affinity
- selectivity between the PfLDH and PvLDH, triazole-cyclized versus RCM cyclic peptide (PfLDH [1]; GST-PfLDH or GST-PvLDH overnight): higher selectivity
- affinity for pfLDH (PfLDH [1]; whole protein, FIG. 10): high affinity

Compound: hevwh-YLGHK
- affinity for pfLDH (PfLDH [3]): high affinity
- affinity for pvLDH (PvLDH [4]): high affinity
